Experimental findings from patent US20220267414A1 are described below.

In experiment [1] the target is canine parvovirus CPV-2b (canine parvovirus CPV-2b). The experiment can be described thus: cell-based or functional assay.
Experiment [2] deals with recombinant canine parvovirus CPV2b capsid (Advanced ImmunoChemical Inc Cat #8-CPV) (canine parvovirus CPV2b). The experiment can be described thus: BLI (Octet), biotinylated antibody on streptavidin tips, VLP at 40 µg/mL as analyte, 1:1 fit. A general note: In BLI a coated tip is dipped into the sample, and binding shifts an interference pattern.

For irrelevant canine IgG (antibody), the CPV-2b HI (hemagglutination inhibition) in experiment [1] is below 20.

B1: Chimeric Canine Mab A v2 (antibody)
heavy: QVQLKESGPGLVAPSQTLSLTCTVSGFSLSSYHVHWVRQPPGKGLEWLGVMWNDGDTSYNLALNSRLSISRDTSKSQVFFKMSSLQTEDTATYYCARPELPGLTYGVWFPYWGQGTLVTVSAASTTAPSVFPLAPSCGSTSGSTVALACLVSGYFPEPVTVSWNSGSLTSGVHTFPSVLQSSGLYSLSSMVTVPSSRWPSETFTCNVAHPASKTKVDKPVPKRENGRVPRPPDCPKCPAPEMLGGPSVFIFPPKPKDTLLIARTPEVTCVVVDLDPEDPEVQISWFVDGKQMQTAKTQPREEQFNGTYRVVSVLPIGHQDWLKGKQFTCKVNNKALPSPIERTISKARGQAHQPSVYVLPPSREELSKNTVSLTCLIKDFFPPDIDVEWQSNGQQEPESKYRTTPPQLDEDGSYFLYSKLSVDKSRWQRGDTFICAVMHEALHNHYTQESLSHSPGK
light: DIVMTQTPASMSISVGDRVTMNCKASQNVDSNVDWYQQKTGQSPNLLIYKASNRNTGVPDRFTGSGSGTDFTFTISNMQAEDLAVYYCMQSTSYPLTFGSGTKLEIKRNDAQPAVYLFQPSPDQLHTGSASVVCLLNSFYPKDINVKWKVDGVIQDTGIQESVTEQDKDSTYSLSSTLTMSSTEYLSHELYSCEITHKSLPSTLIKSFQRSECQRVD
As a reminder, the Kd is the concentration at which binding is half-saturated. Turning to B1, in experiment [2], the Kd worked out at 0.0978 nM.

B2: Chimeric Canine Mab B v2 (antibody, V domains shown)
VH: QVQLKESGPGLVQPSETLSLTCTVSGFSLTSYGVSWVRQPPGKGLEWMGTMWNDGDTDYNSALRSKLSISRDTSKSQVFLKMNSLQTEDTAIYYCARSQLPGYNLRGWFVYWGQGTLVIVSA
VL: DIQMTQSPPVLSASVGDRVTLSCKASHNINKNLEWYQQKLGEAPKLLIYYANNLQTGIPSRFSGSGSGTDYTLTISSLQPEDVATYYCYQYNSGHTFGAGTKLEIKR
In the case of B2, the Kd in experiment [2] was found to be 0.00938 nM.
